From patent publication US20120165503A1 (Merck Sharp & Dohme, published 2012)
*1 amine or outer side, *2 acyl side, *3 side chain or, on linkers, in order; H or OH if unused. Where no end group is shown, it is not given here. Side-chain parts run from the residue outwards. [ ]: non-standard residue; d: D form. The star is where a group is joined. O‑methyl‑L‑homoserine = COCC[C@H](N[*:1])C(=O)[*:2]; γGlu = O=C(O)[C@H](CCC(=O)[*:2])N[*:1]; Stearoyl = CCCCCCCCCCCCCCCCCC(=O)*; Palmitoyl = CCCCCCCCCCCCCCCC(=O)*; Nle = CCCC[C@H](N)C(=O)O; Aib = CC(C)(N)C(=O)O

Experiments:
human glucagon receptor [1] = molecular target: T1, human glucagon receptor (human, UniProt P47871 26-477); test: cell-based or functional assay
T1 sequence (P47871 26-477): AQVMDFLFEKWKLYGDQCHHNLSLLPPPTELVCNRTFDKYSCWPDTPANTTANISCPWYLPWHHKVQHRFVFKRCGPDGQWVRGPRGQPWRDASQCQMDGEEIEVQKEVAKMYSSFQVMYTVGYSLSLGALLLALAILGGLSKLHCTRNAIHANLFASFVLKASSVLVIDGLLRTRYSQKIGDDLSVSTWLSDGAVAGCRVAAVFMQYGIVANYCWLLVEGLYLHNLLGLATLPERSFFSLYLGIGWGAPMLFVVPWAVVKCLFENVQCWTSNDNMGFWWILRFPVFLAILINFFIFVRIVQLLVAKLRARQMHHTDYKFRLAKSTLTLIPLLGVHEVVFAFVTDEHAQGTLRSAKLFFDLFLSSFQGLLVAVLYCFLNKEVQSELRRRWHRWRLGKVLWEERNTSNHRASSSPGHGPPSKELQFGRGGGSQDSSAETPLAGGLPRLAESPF

human GLP-1 receptor [2] = molecular target: T2, human GLP-1 receptor (human, UniProt P43220 24-463); test: cell-based or functional assay
human glucagon receptor [3] = molecular target: T1, human glucagon receptor; test: cell-based or functional assay; remark: listed apart in the source
human GLP-1 receptor [4] = molecular target: T2, human GLP-1 receptor; test: cell-based or functional assay; remark: listed apart in the source
[5] = molecular target: T3, glucagon receptor of wild-type mice (liver, in vivo) (mouse, UniProt Q61606 27-485); test: in vivo GCGR receptor occupancy, competition assay in wild-type mice, 3 mpk s.c.
T3 construct: whole, on cells; Receptor occupancy measured in vivo in liver; also called GCGR; GGCR
T3 sequence (Q61606 27-485): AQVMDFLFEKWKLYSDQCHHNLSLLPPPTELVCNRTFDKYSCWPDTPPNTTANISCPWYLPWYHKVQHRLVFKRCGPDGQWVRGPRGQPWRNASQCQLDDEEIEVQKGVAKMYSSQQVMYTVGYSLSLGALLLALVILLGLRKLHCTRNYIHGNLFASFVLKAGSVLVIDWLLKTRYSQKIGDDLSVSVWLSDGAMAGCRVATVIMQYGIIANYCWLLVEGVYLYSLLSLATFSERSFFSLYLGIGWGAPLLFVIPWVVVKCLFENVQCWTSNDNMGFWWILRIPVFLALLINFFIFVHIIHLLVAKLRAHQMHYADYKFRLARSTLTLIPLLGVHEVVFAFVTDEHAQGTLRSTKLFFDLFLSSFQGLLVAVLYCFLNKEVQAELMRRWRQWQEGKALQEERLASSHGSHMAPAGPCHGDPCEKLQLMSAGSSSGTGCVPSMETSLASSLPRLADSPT

human glucagon receptor [6] = molecular target: T1, human glucagon receptor; test: cell-based or functional assay; remark: listed apart in the source
human GLP-1 receptor [7] = molecular target: T2, human GLP-1 receptor; test: cell-based or functional assay; remark: listed apart in the source

B1: OXM414 (peptide)
peptide: H[dS]QGTFTSDK([γGlu-Palmitoyl])SKYLDERRAQDFVQWLMNTK[γGlu]-NH2
modifications: N-terminus assumed
SMILES: CCCCCCCCCCCCCCCC(=O)N[C@@H](CCC(=O)NCCCC[C@H](NC(=O)[C@H](CC(=O)O)NC(=O)[C@H](CO)NC(=O)[C@@H](NC(=O)[C@H](Cc1ccccc1)NC(=O)[C@@H](NC(=O)CNC(=O)[C@H](CCC(N)=O)NC(=O)[C@@H](CO)NC(=O)[C@@H](N)Cc1c[nH]cn1)[C@@H](C)O)[C@@H](C)O)C(=O)N[C@@H](CO)C(=O)N[C@@H](CCCCN)C(=O)N[C@@H](Cc1ccc(O)cc1)C(=O)N[C@@H](CC(C)C)C(=O)N[C@@H](CC(=O)O)C(=O)N[C@@H](CCC(=O)O)C(=O)N[C@@H](CCCNC(=N)N)C(=O)N[C@@H](CCCNC(=N)N)C(=O)N[C@@H](C)C(=O)N[C@@H](CCC(N)=O)C(=O)N[C@@H](CC(=O)O)C(=O)N[C@@H](Cc1ccccc1)C(=O)N[C@H](C(=O)N[C@@H](CCC(N)=O)C(=O)N[C@@H](Cc1c[nH]c2ccccc12)C(=O)N[C@@H](CC(C)C)C(=O)N[C@@H](CCSC)C(=O)N[C@@H](CC(N)=O)C(=O)N[C@H](C(=O)N[C@@H](CCCCN)C(=O)N[C@@H](CCC(N)=O)C(=O)O)[C@@H](C)O)C(C)C)C(=O)O
hGCGR EC50 (human glucagon receptor [1]): 5 pM
hGLP-1R EC50 (human GLP-1 receptor [2]): 0.007 nM
hGCGR + 20% plasma EC50 (human glucagon receptor [3]): 0.15 nM
hGLP-1R + 20% Plasma EC50 (human GLP-1 receptor [4]): 0.07 nM

B2: OXM70 (peptide)
peptide: HXQGTFTSDYSKYLDSRRAQDFVQWLMNTKRNRNNIAC
modifications: Aib at position 2; C4 = Cys(cholest-5-en-3-yl{[(2R)-3-amino-2-(amino)-3-oxopropyl]thio}acetate) at position 38; C-terminal amide
% RO @ 3 mpk s.c. [5]: ~0%
GCGR + 10% plasma (human glucagon receptor [6]): 169 nM
GCGR EC50 (human glucagon receptor [6]): 2.4 nM
GLP-1R EC50 (human GLP-1 receptor [7]): 0.15 nM

HXQGTFTSDYSKYLDSRRAQDFVQWLMNTKRNRNNIAC (Aib at position 2; C7 = Cys(Oxa4-cholesterol) at position 38; C-terminal amide) [OXM216]
% RO @ 3 mpk s.c. [5]: 10%
% Activation of GCGR (human glucagon receptor [6]): 93%
GCGR + 10% plasma (human glucagon receptor [6]): 12 nM
GCGR EC50 (human glucagon receptor [6]): 0.63 nM
GLP-1R EC50 (human GLP-1 receptor [7]): 3.1 nM

B3: OXM115 (peptide)
peptide: HSQGTFTSDYSKYLDSRRAQDFVQWLMNTKRNRNNIAC
modifications: D-Ser at position 2; C7 = Cys(Oxa4-cholesterol) at position 38; C-terminal amide
% RO @ 3 mpk s.c. [5]: 36%
% Activation of GCGR (human glucagon receptor [6]): 100%
GCGR + 10% plasma (human glucagon receptor [6]): 0.64 nM
GCGR EC50 (human glucagon receptor [6]): 0.33 nM
GLP-1R EC50 (human GLP-1 receptor [7]): 0.08 nM

HXQGTFTSDYSKYLDSRRAQDFVQWLMNTKRNRNNIAK (Aib at position 2; K(palmitoyl) at position 38; C-terminal amide) [OXM177]
% RO @ 3 mpk s.c. [5]: 30%
% Activation of GCGR (human glucagon receptor [6]): 93%
GCGR + 10% plasma (human glucagon receptor [6]): 3 nM
GCGR + 10% plasma (fold shift) (human glucagon receptor [6]): 5 fold
GCGR EC50 (human glucagon receptor [6]): 0.59 nM
GLP-1R EC50 (human GLP-1 receptor [7]): 0.1 nM

H[Aib]QGTFTSDYSKYLDSRRAQDFVQWL[O‑methyl‑L‑homoserine]NTKRNRNNIAC(cholesterol)-NH2 [OXM213]
GCGR + 10% plasma (human glucagon receptor [6]): 1210 nM
GCGR EC50 (human glucagon receptor [6]): 27.6 nM
GLP-1R EC50 (human GLP-1 receptor [7]): 0.3 nM

B4: OXM418 (peptide)
peptide: H[dS]QGTFTSDK([γGlu-γGlu-Palmitoyl])SKYLD[Aib]RRAQDFVQWLMNTK[γGlu]-NH2
modifications: N-terminus assumed
SMILES: CCCCCCCCCCCCCCCC(=O)N[C@@H](CCC(=O)N[C@@H](CCC(=O)NCCCC[C@H](NC(=O)[C@H](CC(=O)O)NC(=O)[C@H](CO)NC(=O)[C@@H](NC(=O)[C@H](Cc1ccccc1)NC(=O)[C@@H](NC(=O)CNC(=O)[C@H](CCC(N)=O)NC(=O)[C@@H](CO)NC(=O)[C@@H](N)Cc1c[nH]cn1)[C@@H](C)O)[C@@H](C)O)C(=O)N[C@@H](CO)C(=O)N[C@@H](CCCCN)C(=O)N[C@@H](Cc1ccc(O)cc1)C(=O)N[C@@H](CC(C)C)C(=O)N[C@@H](CC(=O)O)C(=O)NC(C)(C)C(=O)N[C@@H](CCCNC(=N)N)C(=O)N[C@@H](CCCNC(=N)N)C(=O)N[C@@H](C)C(=O)N[C@@H](CCC(N)=O)C(=O)N[C@@H](CC(=O)O)C(=O)N[C@@H](Cc1ccccc1)C(=O)N[C@H](C(=O)N[C@@H](CCC(N)=O)C(=O)N[C@@H](Cc1c[nH]c2ccccc12)C(=O)N[C@@H](CC(C)C)C(=O)N[C@@H](CCSC)C(=O)N[C@@H](CC(N)=O)C(=O)N[C@H](C(=O)N[C@@H](CCCCN)C(=O)N[C@@H](CCC(N)=O)C(=O)O)[C@@H](C)O)C(C)C)C(=O)O)C(=O)O
hGCGR EC50 (human glucagon receptor [1]): 2 pM
hGLP-1R EC50 (human GLP-1 receptor [2]): 0.026 nM
hGCGR + 20% plasma EC50 (human glucagon receptor [3]): 0.3 nM
hGLP-1R + 20% Plasma EC50 (human GLP-1 receptor [4]): 0.3 nM

B5: MM132 (peptide)
peptide: H[dS]QGTFTSDK([γGlu-γGlu-Stearoyl])SKYLD[Aib]RRAQDFVQWLMNTK[γGlu]-NH2
modifications: N-terminus assumed
SMILES: CCCCCCCCCCCCCCCCCC(=O)N[C@@H](CCC(=O)N[C@@H](CCC(=O)NCCCC[C@H](NC(=O)[C@H](CC(=O)O)NC(=O)[C@H](CO)NC(=O)[C@@H](NC(=O)[C@H](Cc1ccccc1)NC(=O)[C@@H](NC(=O)CNC(=O)[C@H](CCC(N)=O)NC(=O)[C@@H](CO)NC(=O)[C@@H](N)Cc1c[nH]cn1)[C@@H](C)O)[C@@H](C)O)C(=O)N[C@@H](CO)C(=O)N[C@@H](CCCCN)C(=O)N[C@@H](Cc1ccc(O)cc1)C(=O)N[C@@H](CC(C)C)C(=O)N[C@@H](CC(=O)O)C(=O)NC(C)(C)C(=O)N[C@@H](CCCNC(=N)N)C(=O)N[C@@H](CCCNC(=N)N)C(=O)N[C@@H](C)C(=O)N[C@@H](CCC(N)=O)C(=O)N[C@@H](CC(=O)O)C(=O)N[C@@H](Cc1ccccc1)C(=O)N[C@H](C(=O)N[C@@H](CCC(N)=O)C(=O)N[C@@H](Cc1c[nH]c2ccccc12)C(=O)N[C@@H](CC(C)C)C(=O)N[C@@H](CCSC)C(=O)N[C@@H](CC(N)=O)C(=O)N[C@H](C(=O)N[C@@H](CCCCN)C(=O)N[C@@H](CCC(N)=O)C(=O)O)[C@@H](C)O)C(C)C)C(=O)O)C(=O)O
hGCGR EC50 (human glucagon receptor [1]): 4 pM
hGLP-1R EC50 (human GLP-1 receptor [2]): 0.024 nM

H[Aib]QGTFTSDYSKYLDSRRAQDFVQWL[Nle]NTKRNRNNIAC(cholesterol)-NH2 [OXM212]
% Activation of GCGR (human glucagon receptor [6]): 115%
GCGR + 10% plasma (human glucagon receptor [6]): 1030 nM
GCGR + 10% plasma (fold shift) (human glucagon receptor [6]): 92 fold
GCGR EC50 (human glucagon receptor [6]): 11.3 nM
GLP-1R EC50 (human GLP-1 receptor [7]): 0.6 nM

B6: MM127 (peptide)
peptide: H[dS]QGTFTSDK([γGlu-γGlu-Palmitoyl])SKYLD[Aib]RAAQDFVQWLMDTK[γGlu]-NH2
modifications: N-terminus assumed
SMILES: CCCCCCCCCCCCCCCC(=O)N[C@@H](CCC(=O)N[C@@H](CCC(=O)NCCCC[C@H](NC(=O)[C@H](CC(=O)O)NC(=O)[C@H](CO)NC(=O)[C@@H](NC(=O)[C@H](Cc1ccccc1)NC(=O)[C@@H](NC(=O)CNC(=O)[C@H](CCC(N)=O)NC(=O)[C@@H](CO)NC(=O)[C@@H](N)Cc1c[nH]cn1)[C@@H](C)O)[C@@H](C)O)C(=O)N[C@@H](CO)C(=O)N[C@@H](CCCCN)C(=O)N[C@@H](Cc1ccc(O)cc1)C(=O)N[C@@H](CC(C)C)C(=O)N[C@@H](CC(=O)O)C(=O)NC(C)(C)C(=O)N[C@@H](CCCNC(=N)N)C(=O)N[C@@H](C)C(=O)N[C@@H](C)C(=O)N[C@@H](CCC(N)=O)C(=O)N[C@@H](CC(=O)O)C(=O)N[C@@H](Cc1ccccc1)C(=O)N[C@H](C(=O)N[C@@H](CCC(N)=O)C(=O)N[C@@H](Cc1c[nH]c2ccccc12)C(=O)N[C@@H](CC(C)C)C(=O)N[C@@H](CCSC)C(=O)N[C@@H](CC(=O)O)C(=O)N[C@H](C(=O)N[C@@H](CCCCN)C(=O)N[C@@H](CCC(N)=O)C(=O)O)[C@@H](C)O)C(C)C)C(=O)O)C(=O)O
hGCGR EC50 (human glucagon receptor [1]): 4 pM
hGLP-1R EC50 (human GLP-1 receptor [2]): 0.004 nM
